The text below walks through data of patent US20020156245A1.

The target in the assay is human Ptch (SEQ ID NO:4) (human) (UniProt Q13635). In words: Scatchard analysis of displacement of 125I-Shh from 293 cells expressing Ptch. (In a radioligand displacement assay an active substance lowers the binding of a labelled ligand.)
Consider “Ihh (SEQ ID NO:29) (from UniProt P97812 28-202) (ligand)”, for which the dissociation constant (Kd) (commonly the concentration at which binding is half-saturated) was 1 nM.

With “Shh (SEQ ID NO:14), 19 kD amino terminal fragment of murine Shh (from UniProt Q62226 25-198) (ligand)”, the Kd was 1 nM.

On to “Dhh (SEQ ID NO:13) (from UniProt Q61488 23-198) (ligand)”, for which the Kd worked out at 2.6 nM.
